T1: FliR-His (Salmonella enterica serovar Typhimurium, UniProt P54702 1-264)
T1 construct: FliR of Salmonella enterica serovar Typhimurium; One FliR subunit stands in the FliP5-FliQ4-FliR1 complex; source: Salmonella SJW1368 carrying pMKM10001 (pTrcCES3/ FliP + FliQ + FliR-His); purified as FliPQR-His complex (LMNG, Ni-NTA, SEC), reconstituted in peptidisc; not shown: His tag (10 residues), C-terminal, kept
T1 sequence: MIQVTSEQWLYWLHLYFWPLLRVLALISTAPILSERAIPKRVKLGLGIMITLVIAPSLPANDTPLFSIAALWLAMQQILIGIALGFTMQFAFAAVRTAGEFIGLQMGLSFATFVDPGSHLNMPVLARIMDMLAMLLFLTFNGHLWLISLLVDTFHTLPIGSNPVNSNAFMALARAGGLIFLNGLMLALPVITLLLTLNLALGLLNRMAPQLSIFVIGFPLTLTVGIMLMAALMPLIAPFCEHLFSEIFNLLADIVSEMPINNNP

B1: FliP (natural protein)
chain: QLPGLISQPLAGGGQSWSLSVQTLVFITSLTFLPAILLMMTSFTRIIIVFGLLRNALGTPSAPPNQVLLGLALFLTFFIMSPVIDKIYVDAYQPFSEQKISMQEALDKGAQPLRAFMLRQTREADLALFARLANSGPLQGPEAVPMRILLPAYVTSELKTAFQIGFTIFIPFLIIDLVIASVLMALGMMMVPPATIALPFKLMLFVLVDGWQLLMGSLAQSFYS
notes: FliP of Salmonella enterica serovar Typhimurium, mature protein after cleavage of the signal peptide (residues 1-21; cleavage between Ala-21 and Gln-22); residue numbers count on the precursor; Five FliP subunits stand in the FliP5-FliQ4-FliR1 complex; also called mature FliP; FliP^A (Mol-A); source: Salmonella SJW1368 carrying pMKM10001 (pTrcCES3/ FliP + FliQ + FliR-His); purified as FliPQR-His …
B2: FliQ (natural protein)
chain: MTPESVMMMGTEAMKVALALAAPLLLVALITGLIISILQAATQINEMTLSFIPKIVAVFIAIIVAGPWMLNLLLDYVRTLFSNLPYIIG
notes: FliQ of Salmonella enterica serovar Typhimurium; Four FliQ subunits stand in the FliP5-FliQ4-FliR1 complex; source: Salmonella SJW1368 carrying pMKM10001 (pTrcCES3/ FliP + FliQ + FliR-His); purified as FliPQR-His complex (LMNG, Ni-NTA, SEC), reconstituted in peptidisc

How the values were obtained:
Test in all cases: cryo-EM structure; FliPQR-His complex purified from Salmonella membranes and reconstituted in a peptidisc, detergent-free (20 mM Tris-HCl pH 8.0, 150 mM NaCl), fluorinated Fos-Choline 0, 1.0 or 2.0 mM added before grid preparation; single-particle analysis, C1 symmetry, 3.0 Å; closed form
FliR-His = biological target: T1, FliR-His; settings: both partners purified
[1] = biological target: the molecule itself
FliP = biological target: B1; settings: both partners purified

Binder | binding result (FliR-His) | stoichiometry N [1] | binding result (FliP)
B1 | binds | 5 subunits | 
B2 | binds |  | binds

Reference: paper doi:10.1101/2025.02.07.637169, “Structural basis of flagellar rod assembly on the FliPQR protein-export channel” (bioRxiv, 2025)
